Assay results taken from patent publication US11198871B2, “Riboswitch-mediated regulatory control of gene expression in thermophilic bacteria” (priority 2019, dated 2021).
Where two headings read alike, the source gives them in different places.

Tested on: sfGFP
Format: cell-based, Geobacillus thermoglucosidasius
Conditions: for fold change (reduction) of maximal normalized fluorescence: 0.25 mM guanosine versus none; for maximal normalized fluorescence: mid-exponential growth, 55° C.
Experimental: To evaluate the T.s. riboswitches' regulatory activities, a thermophilic fluorescence reporter assay was used that included the use of super-folder green fluorescence protein (sfGFP) which is active in the aerobic thermophile, Geobacillus thermoglucosidasius (G.t.), at a growth temperature of 55° C. Both purine riboswitches from T.s. were inserted downstream of the pRp1S strong promoter respectively in plasmid pG1AK-sf such that the riboswitch controlled the expression of sfGFP once it was introduced into G.t. (see FIG. 2a and Table 1).
To trigger the regulatory response from the riboswitches, guanosine was used as the ligand as cells can import the compound and convert it into guanine enzymatically. […] As an additional control, a point mutation was introduced in the Tsac 2584 aptamer domain at position 74 (C74U). Position 74 is responsible for its interaction with guanine.
In an embodiment, and as depicted in FIG. 8, the normalized fluorescence of the cell culture is defined as: […]
To compare the normalized fluorescence between cultures growing with different ligand concentrations, the normalized fluorescence for each culture was averaged between the mid-log points where the OD was between 0.4 and 0.6.
G. thermoglucosidasius strains transformed with different plasmids were grown aerobically overnight in 5 ml TGP media (supplemental) with 12.5 μg/mL kanamycin at 55° C. and shaken at 200 rpm. The freshly grown overnight culture was used to inoculate 5 mL of fresh TGP media with kanamycin and incubated in the same condition for about 5 hrs when the cultures reached OD600 of about 1.0. This secondary growth culture was used to inoculate 5 ml of Defined Glucose Media (DG) with 250-fold dilution and was sub-aliquoted into a 96-well plate with 200 microliters per well where different concentrations of the effector ligand was added. The plate was incubated in a Greiner-Bio xxx plate reader and the OD600 and the fluorescence intensity (details of excitation and emission) was tracked for 24 hrs. To quantify the normalized fluorescence, the value of the raw fluorescence was taken when the cells were in mid-exponential phase (OD600 0.4-0.6) and divided by the optical density to normalize the fluorescence.

Row | Molecule | fold change (reduction) of maximal normalized fluorescence [fold] | maximal normalized fluorescence (0.25 mM guanosine) [fluorescence units] | fluorescence in comparison to the control pG1AK parental plasmid (with guanosine) | maximal normalized fluorescence (without guanosine) [fluorescence units] | guanosine-dependent repression of sfGFP (guanosine added, result in words)
1 | Tsac 2588 (nucleic acid, listed as Thermoanaerobacterium saccharolyticum) DNA: ATTGTGTCAGGACAAGTAAATAATAGCTCATATAATTCTGAGAATACGGCTCAGAAGTCTCTACCAGACAACCGTAAATTGTCTGACTATGAGTGAAAGTGTACCTGAGGGTTCCAGCCTTATTGTCCATGTGTAGAAAACAGTAAAGGCGTTCGGACCGAGCGGTACAGGCATTGTATTGCCACACCTGTGGGATAAAAGCCCGGGAGGATAGGTTTCACTCTATGTGTTGGAATCTATCATTCCGGGCTTGTTTATTTTTAAAATTCGTTTTTATTT | ~2.5 | 15±0.1 | about 30% | 38±1 | 
2 | Tsac 2584 (nucleic acid, listed as Thermoanaerobacterium saccharolyticum) DNA: ATTGTGTCAGGACAAGTAAATAATAGCTCATATAATTCTGAGAATACGGCTCAGAAGTCTCTACCAGACAACCGTAAATTGTCTGACTATGAGTGAAAGTGTACCTGAGGGTTCCAGCCTTATTGTCCATGTGTAGAAAACAGTAAAGGCGTTCGGACCGAGCGGTACAGGCATTGTATTGCCACACCTGTGGGATAAAAGCCCGGGAGGATAGGTTTCACTCTATGTGTTGGAATCTATCATTCCGGGCTTGTTTATTTTTAAAATTCGTTTTTATTT | ~7 | 2.8±0.1 |  | 20±2 | tight repression
